Measurements as given in patent KR20220116962A (dated 2022).

How the values were obtained:
[1] = biological target: T1, GPR87(N)-GST (인간 GPR87 N-말단 세포외부위 영역과 GST 융합 항원) (human); assay: ELISA, antigen coated, IgG titrated; apparent equilibrium dissociation constant
T1 construct: also called GPR87-GST

[2] = biological target: T2, GPR87(N)-Streptavidin (인간 GPR87 N-말단 세포외부위 영역과 STV 융합 항원) (human); assay: as above
T2 construct: Purified on Ni-NTA, so a His tag is implied but not described; also called GPR87-STV
T2 chain: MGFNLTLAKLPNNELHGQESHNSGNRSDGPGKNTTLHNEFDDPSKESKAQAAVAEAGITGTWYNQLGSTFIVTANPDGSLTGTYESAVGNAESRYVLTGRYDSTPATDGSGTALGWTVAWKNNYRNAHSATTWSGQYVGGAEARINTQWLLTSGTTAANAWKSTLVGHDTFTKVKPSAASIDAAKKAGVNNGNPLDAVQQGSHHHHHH

[3] = biological target: T1, GPR87(N)-GST (인간 GPR87 N-말단 세포외부위 영역과 …); assay: single-clone phage ELISA after 4 rounds of biopanning
[4] = biological target: T2, GPR87(N)-Streptavidin (인간 GPR87 N-말단 …); assay: as above

B1: 단일클론항체 A5 (IgG) (antibody, V domains shown)
VH: QVQLVQSGPGLVKPSETLSLTCSVSGGSMTSYYWSWVRQPPGKGLEWMGYVFHSGITNYSPSLKSRVTMSVDTSKNQFSLKLKSVTAVDTAVYYCAKKSGTSKKPIDYWGQGTTVTVSS
VL: DIVMTQSPSSLSASVGDRITITCRASQSVGTYVNWYQHKPGKAPKLLIYDASNLETGVPSRFSGSGSVTDFTLTITNLQPEDSATYYCLQHKNYPLTFGGGTKVEIKR
notes: also called A5 항체
- Kd [1]: 13.3 nM
- Kd [2]: 14.7 nM

B2: B1 (scFv), phage-displayed clone (scFv)
scFv: EVQLVESGGGLVQPGRSLRLSCKASGFNFDEYALSWVRQAPGKGLEWVGFIRSKAYRETTEYAASVKGRCTISRDDSKSIAYLLMNSLRAEDTAVYYCARGHTPQRPYFDEWGQGTLVTVSSGGGSSGGGGSGGGGSGGGGSDIQMTQSPSFLSASVGDRITITCRASQSVGTYVNWYQQKLGKAPKLLIYTASTLQSGVPARFSGSGSGTEFTLTINGLQPEDFATYYCQQSYRPHFLTFGGGTQLTVLG
- binding result [3]: binds
- binding result [4]: binds

B3: A5 (scFv), phage-displayed clone (scFv)
scFv: QVQLVQSGPGLVKPSETLSLTCSVSGGSMTSYYWSWVRQPPGKGLEWMGYVFHSGITNYSPSLKSRVTMSVDTSKNQFSLKLKSVTAVDTAVYYCAKKSGTSKKPIDYWGQGTTVTVSSGGGSSGGGGSGGGGSGGGGSDIVMTQSPSSLSASVGDRITITCRASQSVGTYVNWYQHKPGKAPKLLIYDASNLETGVPSRFSGSGSVTDFTLTITNLQPEDSATYYCLQHKNYPLTFGGGTKVEIKR
- binding result [3]: binds
- binding result [4]: binds

B4: 단일클론항체 B1 (IgG) (antibody, V domains shown)
VH: EVQLVESGGGLVQPGRSLRLSCKASGFNFDEYALSWVRQAPGKGLEWVGFIRSKAYRETTEYAASVKGRCTISRDDSKSIAYLLMNSLRAEDTAVYYCARGHTPQRPYFDEWGQGTLVTVSS
VL: DIQMTQSPSFLSASVGDRITITCRASQSVGTYVNWYQQKLGKAPKLLIYTASTLQSGVPARFSGSGSGTEFTLTINGLQPEDFATYYCQQSYRPHFLTFGGGTQLTVLG
notes: also called B1 항체
- Kd [1]: 18.1 nM
- Kd [2]: 19.9 nM
